According to PMC5490839 (Nature immunology, 2016):
Where no end group is shown, it is not given here. The star is where a group is joined. Maleimide‑PEG2‑Biotin = EZ Link Maleimide-PEG2-Biotin, O=C(CCCC[C@@H]1SC[C@@H]2NC(=O)N[C@@H]21)NCCOCCOCCNC(=O)CCN1C(=O)CC(*)C1=O

What was measured:
[1] = molecular target: T1, Zap70 K369A (full length) (human, UniProt P43403 1-619, K369A); test: ELISA
T1 sequence (looked up): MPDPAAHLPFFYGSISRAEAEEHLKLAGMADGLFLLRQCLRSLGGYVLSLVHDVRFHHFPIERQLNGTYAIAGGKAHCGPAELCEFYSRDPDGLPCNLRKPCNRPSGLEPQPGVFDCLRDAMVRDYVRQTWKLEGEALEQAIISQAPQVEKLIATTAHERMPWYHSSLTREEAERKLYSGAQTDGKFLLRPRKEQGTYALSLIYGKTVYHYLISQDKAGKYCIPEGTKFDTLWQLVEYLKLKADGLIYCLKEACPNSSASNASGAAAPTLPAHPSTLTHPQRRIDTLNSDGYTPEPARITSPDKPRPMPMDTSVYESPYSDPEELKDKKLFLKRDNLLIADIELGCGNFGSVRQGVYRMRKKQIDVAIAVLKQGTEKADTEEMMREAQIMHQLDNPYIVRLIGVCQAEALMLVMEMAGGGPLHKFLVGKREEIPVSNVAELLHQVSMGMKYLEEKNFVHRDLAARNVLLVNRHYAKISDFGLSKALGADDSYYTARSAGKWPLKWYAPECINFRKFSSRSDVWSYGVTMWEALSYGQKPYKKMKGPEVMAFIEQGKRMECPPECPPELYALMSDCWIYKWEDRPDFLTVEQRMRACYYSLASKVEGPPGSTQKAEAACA

[2] = molecular target: T2, Zap70 K369R (full length) (human, UniProt P43403 1-619, K369R); test: ELISA
T2 sequence (looked up): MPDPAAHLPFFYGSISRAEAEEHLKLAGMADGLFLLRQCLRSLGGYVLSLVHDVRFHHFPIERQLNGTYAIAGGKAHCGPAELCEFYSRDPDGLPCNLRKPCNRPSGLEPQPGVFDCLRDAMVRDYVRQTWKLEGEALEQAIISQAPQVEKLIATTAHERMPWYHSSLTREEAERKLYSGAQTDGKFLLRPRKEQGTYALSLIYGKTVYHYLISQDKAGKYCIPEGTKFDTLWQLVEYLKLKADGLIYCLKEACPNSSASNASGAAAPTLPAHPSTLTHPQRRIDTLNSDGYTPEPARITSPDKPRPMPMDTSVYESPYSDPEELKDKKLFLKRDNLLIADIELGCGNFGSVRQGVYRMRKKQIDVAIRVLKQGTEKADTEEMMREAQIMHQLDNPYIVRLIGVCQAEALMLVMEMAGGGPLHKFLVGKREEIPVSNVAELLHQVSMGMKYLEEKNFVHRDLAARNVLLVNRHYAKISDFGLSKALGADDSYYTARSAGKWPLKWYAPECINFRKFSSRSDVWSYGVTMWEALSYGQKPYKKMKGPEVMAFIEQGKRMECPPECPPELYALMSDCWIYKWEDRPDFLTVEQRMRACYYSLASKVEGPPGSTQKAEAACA

[3] = molecular target: T3, Zap70 D461N (full length, kinase-inactive) (human, UniProt P43403 1-619, D461N); test: ELISA
T3 sequence (looked up): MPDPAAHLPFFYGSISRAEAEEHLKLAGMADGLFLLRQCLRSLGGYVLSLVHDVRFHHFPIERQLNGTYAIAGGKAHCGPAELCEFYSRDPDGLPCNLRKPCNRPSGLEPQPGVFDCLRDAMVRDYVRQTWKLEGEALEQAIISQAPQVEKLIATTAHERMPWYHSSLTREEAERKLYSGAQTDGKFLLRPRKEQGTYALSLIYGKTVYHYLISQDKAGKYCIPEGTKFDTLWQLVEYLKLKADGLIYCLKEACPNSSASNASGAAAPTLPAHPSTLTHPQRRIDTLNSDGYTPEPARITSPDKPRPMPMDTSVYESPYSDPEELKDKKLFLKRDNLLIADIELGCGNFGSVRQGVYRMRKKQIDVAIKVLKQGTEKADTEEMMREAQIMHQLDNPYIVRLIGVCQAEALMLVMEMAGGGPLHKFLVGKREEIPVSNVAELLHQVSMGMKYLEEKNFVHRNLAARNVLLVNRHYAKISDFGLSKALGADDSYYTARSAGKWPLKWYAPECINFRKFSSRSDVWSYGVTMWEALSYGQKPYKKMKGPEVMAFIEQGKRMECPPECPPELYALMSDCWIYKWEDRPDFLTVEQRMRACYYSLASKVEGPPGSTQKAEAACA

[4] = molecular target: T4, wild-type Zap70 (full-length human Zap70) (human, UniProt P43403 1-619); test: ELISA
T4 sequence (looked up): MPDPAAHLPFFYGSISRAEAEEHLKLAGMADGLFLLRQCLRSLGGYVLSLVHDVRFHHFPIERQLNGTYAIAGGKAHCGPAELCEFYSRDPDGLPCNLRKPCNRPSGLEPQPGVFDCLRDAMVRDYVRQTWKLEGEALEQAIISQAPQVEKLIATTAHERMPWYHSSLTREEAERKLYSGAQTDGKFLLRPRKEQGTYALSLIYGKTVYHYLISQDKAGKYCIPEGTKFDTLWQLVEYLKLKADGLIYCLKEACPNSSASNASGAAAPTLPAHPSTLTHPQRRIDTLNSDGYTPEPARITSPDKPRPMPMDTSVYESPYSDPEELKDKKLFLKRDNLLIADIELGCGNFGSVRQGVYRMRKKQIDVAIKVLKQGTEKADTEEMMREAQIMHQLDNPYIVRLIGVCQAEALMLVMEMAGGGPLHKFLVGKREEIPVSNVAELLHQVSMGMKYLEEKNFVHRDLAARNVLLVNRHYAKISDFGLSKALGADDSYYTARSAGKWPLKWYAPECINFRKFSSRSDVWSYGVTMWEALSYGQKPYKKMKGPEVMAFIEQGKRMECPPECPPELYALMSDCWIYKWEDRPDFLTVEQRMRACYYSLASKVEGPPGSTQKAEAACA

[5] = molecular target: T4, wild-type Zap70 (full-length human …); test: BLI
[6] = molecular target: T1, Zap70 K369A (full length); test: BLI
[7] = molecular target: T2, Zap70 K369R (full length); test: BLI
[8] = molecular target: T3, Zap70 D461N (full length, …); test: BLI

Measured: binding result

GGAGQDGVRQSRASDKQTLLPNDQLYQPLKDREDDQYSHLQGNQLRRN (domain or fragment, also: ITAM phosphorylated by Lck, sites not given here, GST fusion)
binds: [1] | [2] | [3] | [4]

C(Maleimide‑PEG2‑Biotin)AGQDGVRQSRASDKQTLLPNDQLYQPLKDREDDQYSHLQGNQLRRN (domain or fragment, also: ITAM phosphorylated by Lck, sites not given here) [bio-phosphorylated CD3γ^CD (biotinylated, phosphorylated cysCD3γ^CD, human CD3γ amino acids 137-182)]
binds: [5] | [6] | [7] | [8]
